Assay results as given in patent US20140193378A1 (UNIVERSITY OF MIAMI, published 2014).

Assays:
[1] = biological target: T1, human GHRH receptor (human pituitary membrane homogenates) (human) (UniProt Q02643); test: radioligand competition vs 125I-JV-1-42 (0.2 nM), human pituitary membranes
T1 sequence (looked up): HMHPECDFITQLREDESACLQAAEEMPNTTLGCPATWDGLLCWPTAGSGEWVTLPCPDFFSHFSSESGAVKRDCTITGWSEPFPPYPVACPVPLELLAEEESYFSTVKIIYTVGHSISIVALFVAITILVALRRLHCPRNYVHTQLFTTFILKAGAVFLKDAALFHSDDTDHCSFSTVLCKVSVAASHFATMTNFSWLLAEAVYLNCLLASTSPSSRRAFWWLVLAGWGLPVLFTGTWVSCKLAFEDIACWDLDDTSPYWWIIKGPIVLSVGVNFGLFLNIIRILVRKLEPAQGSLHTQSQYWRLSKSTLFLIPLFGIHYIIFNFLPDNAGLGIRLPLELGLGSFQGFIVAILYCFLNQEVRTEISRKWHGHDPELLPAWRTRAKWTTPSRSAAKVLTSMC

[2] = biological target: T1, human GHRH receptor (human pituitary membrane homogenates) (human); test: as above; remark: listed apart in the source
[3] = biological target: T1, human GHRH receptor (human pituitary membrane homogenates) (human); test: radioligand competition vs [His1,125I-Tyr10,Nle27]hGHRH(1-32)NH2 (0.2 nM), human pituitary membranes

Substance | Relative affinity (Binding potency) vs JI-38 [1] [fold] | Relative affinity (Binding potency) vs GHRH [2] [fold] | Relative affinity (Binding potency) vs JI-38 [2] [fold] | Relative affinity (Binding potency) vs GHRH [3] [fold] | Relative affinity (Binding potency) vs JI-38 [3] [fold]
JI-36 (peptide) | – | – | – | 3.25 | –
JI-34 (peptide) | – | – | – | 4.32 | –

The next lines start with the values.

Relative affinity (Binding potency) vs JI-38 [1] [fold] | Relative affinity (Binding potency) vs GHRH [2] [fold] | Relative affinity (Binding potency) vs JI-38 [2] [fold] | Relative affinity (Binding potency) vs GHRH [3] [fold] | Relative affinity (Binding potency) vs JI-38 [3] [fold] | Substance
14.5 | – | – | – | – | P-27406 [N-Me-Tyr^1, Gln^8, Orn^12, Abu^15, Orn^21, Nle^27, Asp^28]hGHRH(1-29)NH-CH3 (peptide)
16.1 | 406 | 171 | – | – | P-20356 [N-Me-Tyr^1, Gln^8, Orn^12, Abu^15, Orn^21, Nle^27, Asp^28, Agm^29]hGHRH(1-29)NH2 (peptide)
– | 2.4 | 1 | 3.03 | 1 | JI-38 (peptide)
1.45 | – | – | – | – | P-27407 [Dat^1, Gln^8, Orn^12, Abu^15, Orn^21, Nle^27, Asp^28]hGHRH(1-29)NH-CH3 (peptide)
